Measurements from patent US7579150B1, “Mobile RNA acts as a signal to regulate plant growth and development” (Iowa State University Research Foundation, Inc., priority 2004, dated 2009).

B1: StBEL-11: BEL transcription factor from Solanum tuberosum, SEQ ID NO:4 (protein, listed as Solanum tuberosum)
chain: MTFRSSLPLDLREISTTNHQVGILSSSPLPSPGTNTNNINHTRGLGASSSFSISNGMILGSKYLKVAQDLLDEVVNVGKNIKLSDGLESGAKEKHKLDNELISLASDDVESSSQKNSGVELTTAQRQELQMKKAKLVSMLDEVDQRYRQYHHQMQMIATSFEQTTGIGSSKSYTQLALHTISKQFRCLKDAISGQIKDTSKTLGEEENIGGKIEGSKLKFVDHHLRQQRALQQLGMMQTNAWKPQRGLPERAVSVLRAWLFEHFLHPYPKDSDKIILAKQTGLTRSQVSNWFINARVRLWKPMVEEMYMEEVKKNNQEQNIEPNNNEIVGSKSSVPQEKLPISSNIIHNASPNDISTSTISTSPTGGGGSIPTQTVAGFSFIRSLNMENIDDQRNNKKARNEMQNCSTSTILSMEREIINKVVQDETIKSEKFNNTQTRECYSLMTPNYTMDDQFGTRFNNQNHEQLATTTTFHQGNGHVSLTLGLPPNSENQHNYIGLENHYNQPTHHPNISYENIDFQSGKRYATQLLQDFVS
B2: StBEL-13: BEL transcription factor from Solanum tuberosum, SEQ ID NO:6 (protein, listed as Solanum tuberosum)
chain: MVMGGGASSQQLGYAKNHTPNVAESMQLFLMNPQPRSPSPSPPNSTSSTLHMLLPNPSSTSTLQGFPNPAEGSFGQFITWGNGGASAATATHHLNAQNEIGGVNVVESQGLSLSLSSSLQHKAEELQMSGEAGGMMFFNQGGSSTSGQYRYKNLNMGGSGVSPNIHQVHVGYGSSLGVVNVLRNSKYAKAAQELLEEFCSVGRGKLKKTNNKAAANNPNTNPSGANNEASSKDVPTLSAADRIEHQRRKVKLLSMVDEVDRRYNHYCEQMQMVVNSFDLVMGFGTAVPYTALAQKAMSRHFRCLKDAIGAQLKQSCELLGEKDAGNSGLTKGETPRLKMLEQSLRQQRAFHQMGMMEQEAWRPQRGLPERSVNILRAWLFEHFLHPYPSDADKHLLARQTGLSRNQVSNWFINARVRLWKPMVEDMYQQEAKDEDGDGDEKSQSQNSGNNIIAQTPTPNSLTNTSSTNMTTTTAPTTTTALAAAETGTAATPITVTSSKRSQINATDSDPSLVAINSFSENQATFPTNIHDPDDCRRGNLSGDDGTTTHDHMGSTMIRFGTTAGDVSLTLGLRHAGNLPENTHFFG
B3: StBEL-14: BEL transcription factor from Solanum tuberosum, SEQ ID NO:8 (protein, listed as Solanum tuberosum)
chain: MVNHQLQNFETNPEMYNLSSTTSSMDQMIGFPPNNNNPHHVLWKGNFPNKINGVDDDDHGPSSSKNIISEQFYQHGSHENMLTTTTTHHDDHQGSWHHDNNRTLLVDDPSMRCVFPCEGNERPSHGLSLSLCSSNPSSIGLQSFELRHQDLQQGLIHDGFLGKSTNIQQGYFHHHHQVRDSKYLGPAQELLSEFCSLGIKKNNDHSSSKVLLKQHESTASTSKKQLLQSLDLLELQKRKTKLLQMLEEVDRRYKHYCDQMKAVVSSFEAVAGNGAATVYSALASRAMSRHFRCLRDGIVAQIKATKMAMGEKDSTSTLIPGSTRGETPRLRLLDQTLRQQKAFQQMNMMETHPWRPQRGLPERSVSVLRAWLFEHFLHPYPSDVDKHILARQTGLSRSQVSNWFINARVRLWKPMVEEMYLEETKEEENVGSPDGSKALIDDMTIHQSHIDHHQADQKPNLVRIDSECISSIINHQPHEKNDQNYGVIRGGDQSFGAIELDFSTNIAYGTSGGDHHHHGGGVSLTLGLQQHGGSGGSSMGLTTFSSQPSHNQSSLFYPRDDDQVQYSSLLDSENQNLPYRNLDGGTTSS
B4: StBEL-22: BEL transcription factor from Solanum tuberosum, SEQ ID NO:10 (protein, listed as Solanum tuberosum)
chain: TSVYETAGLLSEMFNFQTTSTAATELLQNQLSNNYRHPNQQPHHQPPTREWFGNRQEIVVGGSLQVTFGDTKDDVNAKVLLSNRDSVTDYYQRQHNQVPSINTAESMQLFLMNPQPSSPSQSTPSTLHQGFSSPVGGHFSQFMCGGASTSSNPIGGVNVIDQGQGLSLSLSSTLQHLEASKVEDLRMNSGGEMLFFNQESQNHHNIGFGSSLGLVNVLRNSKYVKATQELLEEFCCVGKGQLFKKINKVSRNNNTSTSPIINPSGSNNNNSSSSKAIIPPNLSTAERLDHQRRKVKLLSMLDEVEKRYNHYCEQMQMVVNSFDLVMGFGAAVPYTALAQKAMSRHFKCLKDGVAAQLKKTCEALGEKDASSSSGLTKGETPRLKVLEQSLRQQRAFQQMGMMEQEAWRPQRGLPERSVNILRAWLFEHFLHPYPSDADKHLLARQTGLSRNQVANWFINARVRLWKPMVEEMYQREVNEDDVDDMQENQNSTNTQIPTPNIIITTNSNITETKSAATATIASDKKPQINVSEIDPSIVAMNTHYSSSMPTQLTNFPTIQDESDHILYRRSGAEYGTTNMASNSEIGSNMITFGTTTASDVSLTLGLRHAGNLPENTHFSG
B5: StBEL-29: BEL transcription factor from Solanum tuberosum, SEQ ID NO:12 (protein, listed as Solanum tuberosum)
chain: QGLSLSLSSSQQPGFGNFTAARELVSSPSGSASASGIQQQQQQQQSISSVPLSSKYMKAAQELLDEVVNVGKSMKSTNSTDVVVNNDVKKSKNMGDMDGQLDGVGADKDGAPTTELSTGERQEIQMKKAKLVNMLDEVEQRYRHYHHQMQSVIHWLEQAAGIGSAKTYTALALQTISKQFRCLKDAIIGQIRSASQTLGEEDSLGGKIEGSRLKFVDNQLRQQRALQQLGMIQHNAWRPQRGLPERAVSVLRAWLFEHFLHPYPKDSDKMMLAKQTGLTRSQVSNWFINARVRLWKPMVEEMYLEEIKEHEQNGLGQEKTSKLGEQNEDSTTSRSIATQDKSPGSDSQNKSFVSKQDNHLPQHNPASPMPDVQRHFHTPIGMTIRNQSAGFNLIGSPEIESINITQGSPKKPRNNEMLHSPNSIPSINMDVKPNEEQMSMKFGDDRQDRDGFSLMGGPMNFMGGFGAYPIGEIARFSTEQFSAPYSTSGTVSLTLGLPHNENLSMSATHHSFLPIPTQNIQIGSEPNHEFGSLNTPTSAHSTSSVYETFNIQNRKRFAAPLLPDFVA
B6: StBEL-30: BEL transcription factor from Solanum tuberosum, SEQ ID NO:14 (protein, listed as Solanum tuberosum)
chain: MATYFPSPNNQRDADQTFQYFRQSLPESYSEASNAPENMMVFMNYSSSGAYSDMLTGTSQQQHNCIDIPSIGATPFNTSQQEILSNLGGSQMGIQDFSSWRDSRNEMLADNVFQVAQNVQGQGLSLSLGSNIPSGIGISHVQSQNPNQGGGFNMSFGDGDNSQPKEQRNADYFPPDNPGRDLDAMKGYNSPYGTSSIARTIPSSKYLKAAQYLLDEVVSVRKAIKEQNSKKELTKDSRESDVDSKNISSDTPANGGSNPHESKNNQSELSPTEKQEVQNKLAKLLSMLDEIDRRYRQYYHQMQIVVSSFDVVAGEGAAKPYTALALQTISRHFRCLRDAICDQIRASRRSLGEQDASENSKAIGISRLRFVDHHIRQQRALQQLGMMQQHAWRPQRGLPESSVSVLRAWLFEHFLHPYPKDSDKIMLARQTGLTRSQVSNWFINARVRLWKPMVEEMYKEEAGDAKIDSNSSSDVAPRLATKDSKVEERGELHQNAASEFEQYNSGQILESKSNHEADVEMEGASNAETQSQSGMENQTGEPLPAMDNCTLFQDAFVQSNDRFSEFGSFGSGNVLPNGVSLTLGLQQGEGSNLPMSIETHVSYVPLRADDMYSTAPTTMVPETAEFNCLDSGNRQQPFWLLPSAT
B7: pAD5-9: StBEL-05 deletion construct, aa 1 through 315 (protein)
chain: MNPNNYMQGYTTSDTQQQQQLLFLNSSPAASNALCHANIQHAPLQQQHFVGVPLPAVSLHDQINHHGLLQRMWNNQDQSQQVIVPSSTGVSATSCGGITTDLASQLAFQRPIPTPQHRQQQQQQGGLSLSLSPQLQQQISFNNNISSSSPRTNNVTIRGTLDGSSSNMVLGSKYLKAAQELLDEVVNIVGKSIKGDDQKKDNSMNKESMPLASDVNTNSSGGGESSSRQKNEVAVELTTAQRQELQMKKAKLLAMLEEVEQRYRQYHHQMQIIVLSFEQVAGIGSAKSYTQLALHAISKQFRCLKDAIAEQVKAT
modifications: left off: large carriers

System: POTH1
Sequence (as listed by the source): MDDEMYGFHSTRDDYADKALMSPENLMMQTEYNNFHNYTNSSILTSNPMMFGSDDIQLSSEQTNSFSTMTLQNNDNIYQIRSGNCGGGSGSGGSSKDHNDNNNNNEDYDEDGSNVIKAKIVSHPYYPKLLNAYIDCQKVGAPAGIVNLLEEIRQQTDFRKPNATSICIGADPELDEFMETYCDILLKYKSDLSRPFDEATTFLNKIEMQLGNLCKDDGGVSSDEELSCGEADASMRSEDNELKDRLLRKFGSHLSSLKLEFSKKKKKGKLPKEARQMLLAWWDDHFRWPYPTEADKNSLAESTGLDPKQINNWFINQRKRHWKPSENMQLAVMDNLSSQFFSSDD
Assay: Yeast two-hybrid interaction with POTH1 (nutritional selection, beta-galactosidase)
Type: cell-based, potato
Settings: yeast strain AH109, nutritional markers and lacZ
Excerpt: The Matchmaker two-hybrid system (Clontech, CA) was used for the yeast two-hybrid screen. Yeast transformation and plasmid rescue into DH5-a E. coli cells were according to the manufacturer's instructions. Full-length POTH1 was cloned into the pBridge (Clontech, CA) vector and used as bait to screen the potato (S. tuberosum ‘Desireé’) stolon cDNA library in pAD-GAL4-2.1 (Stratagene, Calif.). Positive interactions were confirmed by cotransforming yeast strain AH109 with each purified pAD plasmid and pBridge: POTH1 and plating on -leucine/-tryptophan (transformation control) and -leucine/-tryptophan/-histidine/-adenine (selection) nutrient medium. Induction of the AH109 reporter gene, lacZ, was measured with a yeast β-galactosidase assay kit (Pierce Chemicals). β-galactosidase activity (FIG. 9B) was determined from a known density of yeast cells and calculated as 1000×OD420/time of color reaction (minutes)×volume of yeast culture (ml)×OD600.
The StBEL-05 deletion constructs were amplified by PCR, then cloned into the vector, pGAD, in-frame with the GAL4 activation domain. POTH1 deletion constructs were amplified by PCR, and cloned into pBridge (Clontech) in-frame with the GAL4 binding domain. Sequencing of selected cDNAs and constructs was performed at the Iowa State University DNA Facility. For deletion analysis, modified constructs of POTH1 were cloned into the pBridge vector for fusion with the DNA-binding domain of GAL4 (FIG. 10A). For StBEL-05, constructs were cloned into the pGAD vector for fusion with the activating domain of GAL4 (FIG. 10B). Deletion constructs were made from both the amino and carboxy termini. These mutants were then tested for interaction in the yeast two-hybrid system by cotransforming into yeast strain AH109 with the corresponding full-length partner (StBEL-05 in pGAL4 or POTH1 in pBridge). All constructs were sequenced to verify that they were in-frame. Positive interactions were verified for lacZ induction by using a β-galactosidase assay (Pierce Chemical Company). For POTH1, seven deletion constructs were tested (FIG. 10A). For the BEL TFs, a fusion construct of StBEL-05 (653 aa of StBEL-05 sequence) and nine deletion constructs were tested (FIG. 10B).

| Molecule | interaction with POTH1 |
| --- | --- |
| B1 | showed selective interaction |
| B2 | showed selective interaction |
| B3 | showed selective interaction |
| B4 | showed selective interaction |
| B5 | showed selective interaction |
| B6 | showed selective interaction |
| B7 | interaction with POTH1 |
